In US20150344570A1 (published 2015):

target: T1, FcγRIa (human, UniProt P12314 16-292); assay: SPR (Biacore); He Ab vs HeCon Ab GpH7-A5/GpH7-B3/GpL16-k0
T1 construct: extracellular domain; Soluble extracellular domain expressed in FreeStyle293 cells, used as analyte in Biacore; also called FcgRI; 1a; not shown: His tag attached to the C terminus
Protocol: Analysis of interaction between objective antibody and the FcγR was carried out using Biacore T100 (GE Healthcare). HBS-EP+ (GE Healthcare) was used as the running buffer, and the measurement temperature was set to 25° C. Chips produced by immobilizing the antigen peptide by the amine coupling method to a Series S Sencor Chip CM5 (GE Healthcare), or alternatively, chips produced by allowing preliminarily biotinylated antigen peptides to interact with and immobilize onto a Series S Sensor Chip SA (certified) (GE Healthcare) were used. Antibodies of interest were captured onto an antigen peptide-immobilized chip, and allowed to interact to each FcγR diluted with running buffer. To regenerate and repeatedly use the chip, the antibodies captured on the chip were washed off by reacting 10 mM glycine-HCl, pH 1.5.

T1 sequence (P12314 16-292): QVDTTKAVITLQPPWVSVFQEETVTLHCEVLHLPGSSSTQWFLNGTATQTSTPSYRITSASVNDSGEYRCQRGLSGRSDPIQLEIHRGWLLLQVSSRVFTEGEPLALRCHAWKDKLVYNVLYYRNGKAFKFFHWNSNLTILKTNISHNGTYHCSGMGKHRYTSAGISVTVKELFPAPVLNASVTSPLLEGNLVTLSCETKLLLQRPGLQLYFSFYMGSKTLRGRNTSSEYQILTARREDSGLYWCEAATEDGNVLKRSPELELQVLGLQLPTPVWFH

| Binder | He/Con_1a |
| --- | --- |
| GpH7-A5/GpH7-B3 variant S337_04F/GpL16-k0 (antibody, human IgG1, kappa, also called He Ab S337_04F) heavy 1: not shown heavy 2: not shown light: DIVMTQSPLSLPVTPGEPASISCQASESLVHSNRNTYLHWYLQKPGQSPQLLIYKVSNRFSGVPDRFSGSGSGTDFTLKISRVEAEDVGVYYCSQNTHVPPTFGQGTKVEIERTVAAPSVFIFPPSDEQLKSGTASVVCLLNNFYPREAKVQWKVDNALQSGNSQESVTEQDSKDSTYSLSSTLTLSKADYEKHKVYACEVTHQGLSSPVTKSFNRGEC | 106 relative binding, control = 100 |
| GpH7-A5/GpH7-B3 variant S337_07I/GpL16-k0 (antibody, human IgG1, kappa, also called He Ab S337_07I) heavy 1: not shown heavy 2: not shown light: DIVMTQSPLSLPVTPGEPASISCQASESLVHSNRNTYLHWYLQKPGQSPQLLIYKVSNRFSGVPDRFSGSGSGTDFTLKISRVEAEDVGVYYCSQNTHVPPTFGQGTKVEIERTVAAPSVFIFPPSDEQLKSGTASVVCLLNNFYPREAKVQWKVDNALQSGNSQESVTEQDSKDSTYSLSSTLTLSKADYEKHKVYACEVTHQGLSSPVTKSFNRGEC | 105 relative binding, control = 100 |
| GpH7-A5/GpH7-B3 variant T335_05P/GpL16-k0 (antibody, human IgG1, kappa, also called He Ab T335_05P) heavy 1: not shown heavy 2: not shown light: DIVMTQSPLSLPVTPGEPASISCQASESLVHSNRNTYLHWYLQKPGQSPQLLIYKVSNRFSGVPDRFSGSGSGTDFTLKISRVEAEDVGVYYCSQNTHVPPTFGQGTKVEIERTVAAPSVFIFPPSDEQLKSGTASVVCLLNNFYPREAKVQWKVDNALQSGNSQESVTEQDSKDSTYSLSSTLTLSKADYEKHKVYACEVTHQGLSSPVTKSFNRGEC | 106 relative binding, control = 100 |
| GpH7-A5/GpH7-B3 variant T335_09D/GpL16-k0 (antibody, human IgG1, kappa, also called He Ab T335_09D) heavy 1: not shown heavy 2: not shown light: DIVMTQSPLSLPVTPGEPASISCQASESLVHSNRNTYLHWYLQKPGQSPQLLIYKVSNRFSGVPDRFSGSGSGTDFTLKISRVEAEDVGVYYCSQNTHVPPTFGQGTKVEIERTVAAPSVFIFPPSDEQLKSGTASVVCLLNNFYPREAKVQWKVDNALQSGNSQESVTEQDSKDSTYSLSSTLTLSKADYEKHKVYACEVTHQGLSSPVTKSFNRGEC | 108 relative binding, control = 100 |
| GpH7-A5/GpH7-B3 variant T335_08L/GpL16-k0 (antibody, human IgG1, kappa, also called He Ab T335_08L) heavy 1: not shown heavy 2: not shown light: DIVMTQSPLSLPVTPGEPASISCQASESLVHSNRNTYLHWYLQKPGQSPQLLIYKVSNRFSGVPDRFSGSGSGTDFTLKISRVEAEDVGVYYCSQNTHVPPTFGQGTKVEIERTVAAPSVFIFPPSDEQLKSGTASVVCLLNNFYPREAKVQWKVDNALQSGNSQESVTEQDSKDSTYSLSSTLTLSKADYEKHKVYACEVTHQGLSSPVTKSFNRGEC | 115 relative binding, control = 100 |
| GpH7-A5/GpH7-B3 variant T335_10E/GpL16-k0 (antibody, human IgG1, kappa, also called He Ab T335_10E) heavy 1: not shown heavy 2: not shown light: DIVMTQSPLSLPVTPGEPASISCQASESLVHSNRNTYLHWYLQKPGQSPQLLIYKVSNRFSGVPDRFSGSGSGTDFTLKISRVEAEDVGVYYCSQNTHVPPTFGQGTKVEIERTVAAPSVFIFPPSDEQLKSGTASVVCLLNNFYPREAKVQWKVDNALQSGNSQESVTEQDSKDSTYSLSSTLTLSKADYEKHKVYACEVTHQGLSSPVTKSFNRGEC | 109 relative binding, control = 100 |
| GpH7-A5/GpH7-B3 variant S337_15Y/GpL16-k0 (antibody, human IgG1, kappa, also called He Ab S337_15Y) heavy 1: not shown heavy 2: not shown light: DIVMTQSPLSLPVTPGEPASISCQASESLVHSNRNTYLHWYLQKPGQSPQLLIYKVSNRFSGVPDRFSGSGSGTDFTLKISRVEAEDVGVYYCSQNTHVPPTFGQGTKVEIERTVAAPSVFIFPPSDEQLKSGTASVVCLLNNFYPREAKVQWKVDNALQSGNSQESVTEQDSKDSTYSLSSTLTLSKADYEKHKVYACEVTHQGLSSPVTKSFNRGEC | 104 relative binding, control = 100 |
| GpH7-A5/GpH7-B3 variant S337_08L/GpL16-k0 (antibody, human IgG1, kappa, also called He Ab S337_08L) heavy 1: not shown heavy 2: not shown light: DIVMTQSPLSLPVTPGEPASISCQASESLVHSNRNTYLHWYLQKPGQSPQLLIYKVSNRFSGVPDRFSGSGSGTDFTLKISRVEAEDVGVYYCSQNTHVPPTFGQGTKVEIERTVAAPSVFIFPPSDEQLKSGTASVVCLLNNFYPREAKVQWKVDNALQSGNSQESVTEQDSKDSTYSLSSTLTLSKADYEKHKVYACEVTHQGLSSPVTKSFNRGEC | 105 relative binding, control = 100 |
| GpH7-A5/GpH7-B3 variant S337_19Q/GpL16-k0 (antibody, human IgG1, kappa, also called He Ab S337_19Q) heavy 1: not shown heavy 2: not shown light: DIVMTQSPLSLPVTPGEPASISCQASESLVHSNRNTYLHWYLQKPGQSPQLLIYKVSNRFSGVPDRFSGSGSGTDFTLKISRVEAEDVGVYYCSQNTHVPPTFGQGTKVEIERTVAAPSVFIFPPSDEQLKSGTASVVCLLNNFYPREAKVQWKVDNALQSGNSQESVTEQDSKDSTYSLSSTLTLSKADYEKHKVYACEVTHQGLSSPVTKSFNRGEC | 105 relative binding, control = 100 |
| GpH7-A5/GpH7-B3 variant T335_12R/GpL16-k0 (antibody, human IgG1, kappa, also called He Ab T335_12R) heavy 1: not shown heavy 2: not shown light: DIVMTQSPLSLPVTPGEPASISCQASESLVHSNRNTYLHWYLQKPGQSPQLLIYKVSNRFSGVPDRFSGSGSGTDFTLKISRVEAEDVGVYYCSQNTHVPPTFGQGTKVEIERTVAAPSVFIFPPSDEQLKSGTASVVCLLNNFYPREAKVQWKVDNALQSGNSQESVTEQDSKDSTYSLSSTLTLSKADYEKHKVYACEVTHQGLSSPVTKSFNRGEC | 113 relative binding, control = 100 |
| GpH7-A5/GpH7-B3 variant T335_07I/GpL16-k0 (antibody, human IgG1, kappa, also called He Ab T335_07I) heavy 1: not shown heavy 2: not shown light: DIVMTQSPLSLPVTPGEPASISCQASESLVHSNRNTYLHWYLQKPGQSPQLLIYKVSNRFSGVPDRFSGSGSGTDFTLKISRVEAEDVGVYYCSQNTHVPPTFGQGTKVEIERTVAAPSVFIFPPSDEQLKSGTASVVCLLNNFYPREAKVQWKVDNALQSGNSQESVTEQDSKDSTYSLSSTLTLSKADYEKHKVYACEVTHQGLSSPVTKSFNRGEC | 109 relative binding, control = 100 |
| GpH7-A5/GpH7-B3 variant V266_19Q/GpL16-k0 (antibody, human IgG1, kappa, also called He Ab V266_19Q) heavy 1: not shown heavy 2: not shown light: DIVMTQSPLSLPVTPGEPASISCQASESLVHSNRNTYLHWYLQKPGQSPQLLIYKVSNRFSGVPDRFSGSGSGTDFTLKISRVEAEDVGVYYCSQNTHVPPTFGQGTKVEIERTVAAPSVFIFPPSDEQLKSGTASVVCLLNNFYPREAKVQWKVDNALQSGNSQESVTEQDSKDSTYSLSSTLTLSKADYEKHKVYACEVTHQGLSSPVTKSFNRGEC | 100 relative binding, control = 100 |
| GpH7-A5/GpH7-B3 variant S337_20W/GpL16-k0 (antibody, human IgG1, kappa, also called He Ab S337_20W) heavy 1: not shown heavy 2: not shown light: DIVMTQSPLSLPVTPGEPASISCQASESLVHSNRNTYLHWYLQKPGQSPQLLIYKVSNRFSGVPDRFSGSGSGTDFTLKISRVEAEDVGVYYCSQNTHVPPTFGQGTKVEIERTVAAPSVFIFPPSDEQLKSGTASVVCLLNNFYPREAKVQWKVDNALQSGNSQESVTEQDSKDSTYSLSSTLTLSKADYEKHKVYACEVTHQGLSSPVTKSFNRGEC | 105 relative binding, control = 100 |
| GpH7-A5/GpH7-B3 variant T335_06M/GpL16-k0 (antibody, human IgG1, kappa, also called He Ab T335_06M) heavy 1: not shown heavy 2: not shown light: DIVMTQSPLSLPVTPGEPASISCQASESLVHSNRNTYLHWYLQKPGQSPQLLIYKVSNRFSGVPDRFSGSGSGTDFTLKISRVEAEDVGVYYCSQNTHVPPTFGQGTKVEIERTVAAPSVFIFPPSDEQLKSGTASVVCLLNNFYPREAKVQWKVDNALQSGNSQESVTEQDSKDSTYSLSSTLTLSKADYEKHKVYACEVTHQGLSSPVTKSFNRGEC | 107 relative binding, control = 100 |
| GpH7-A5/GpH7-B3 variant S337_12R/GpL16-k0 (antibody, human IgG1, kappa, also called He Ab S337_12R) heavy 1: not shown heavy 2: not shown light: DIVMTQSPLSLPVTPGEPASISCQASESLVHSNRNTYLHWYLQKPGQSPQLLIYKVSNRFSGVPDRFSGSGSGTDFTLKISRVEAEDVGVYYCSQNTHVPPTFGQGTKVEIERTVAAPSVFIFPPSDEQLKSGTASVVCLLNNFYPREAKVQWKVDNALQSGNSQESVTEQDSKDSTYSLSSTLTLSKADYEKHKVYACEVTHQGLSSPVTKSFNRGEC | 106 relative binding, control = 100 |
| GpH7-A5/GpH7-B3 variant T335_15Y/GpL16-k0 (antibody, human IgG1, kappa, also called He Ab T335_15Y) heavy 1: not shown heavy 2: not shown light: DIVMTQSPLSLPVTPGEPASISCQASESLVHSNRNTYLHWYLQKPGQSPQLLIYKVSNRFSGVPDRFSGSGSGTDFTLKISRVEAEDVGVYYCSQNTHVPPTFGQGTKVEIERTVAAPSVFIFPPSDEQLKSGTASVVCLLNNFYPREAKVQWKVDNALQSGNSQESVTEQDSKDSTYSLSSTLTLSKADYEKHKVYACEVTHQGLSSPVTKSFNRGEC | 107 relative binding, control = 100 |
| GpH7-A5/GpH7-B3 variant T335_11K/GpL16-k0 (antibody, human IgG1, kappa, also called He Ab T335_11K) heavy 1: not shown heavy 2: not shown light: DIVMTQSPLSLPVTPGEPASISCQASESLVHSNRNTYLHWYLQKPGQSPQLLIYKVSNRFSGVPDRFSGSGSGTDFTLKISRVEAEDVGVYYCSQNTHVPPTFGQGTKVEIERTVAAPSVFIFPPSDEQLKSGTASVVCLLNNFYPREAKVQWKVDNALQSGNSQESVTEQDSKDSTYSLSSTLTLSKADYEKHKVYACEVTHQGLSSPVTKSFNRGEC | 111 relative binding, control = 100 |
| GpH7-A5/GpH7-B3 variant T335_04F/GpL16-k0 (antibody, human IgG1, kappa, also called He Ab T335_04F) heavy 1: not shown heavy 2: not shown light: DIVMTQSPLSLPVTPGEPASISCQASESLVHSNRNTYLHWYLQKPGQSPQLLIYKVSNRFSGVPDRFSGSGSGTDFTLKISRVEAEDVGVYYCSQNTHVPPTFGQGTKVEIERTVAAPSVFIFPPSDEQLKSGTASVVCLLNNFYPREAKVQWKVDNALQSGNSQESVTEQDSKDSTYSLSSTLTLSKADYEKHKVYACEVTHQGLSSPVTKSFNRGEC | 105 relative binding, control = 100 |
| GpH7-A5/GpH7-B3 variant S337_09D/GpL16-k0 (antibody, human IgG1, kappa, also called He Ab S337_09D) heavy 1: not shown heavy 2: not shown light: DIVMTQSPLSLPVTPGEPASISCQASESLVHSNRNTYLHWYLQKPGQSPQLLIYKVSNRFSGVPDRFSGSGSGTDFTLKISRVEAEDVGVYYCSQNTHVPPTFGQGTKVEIERTVAAPSVFIFPPSDEQLKSGTASVVCLLNNFYPREAKVQWKVDNALQSGNSQESVTEQDSKDSTYSLSSTLTLSKADYEKHKVYACEVTHQGLSSPVTKSFNRGEC | 106 relative binding, control = 100 |
| GpH7-A5/GpH7-B3 variant S337_06M/GpL16-k0 (antibody, human IgG1, kappa, also called He Ab S337_06M) heavy 1: not shown heavy 2: not shown light: DIVMTQSPLSLPVTPGEPASISCQASESLVHSNRNTYLHWYLQKPGQSPQLLIYKVSNRFSGVPDRFSGSGSGTDFTLKISRVEAEDVGVYYCSQNTHVPPTFGQGTKVEIERTVAAPSVFIFPPSDEQLKSGTASVVCLLNNFYPREAKVQWKVDNALQSGNSQESVTEQDSKDSTYSLSSTLTLSKADYEKHKVYACEVTHQGLSSPVTKSFNRGEC | 107 relative binding, control = 100 |
| GpH7-A5/GpH7-B3 variant S337_10E/GpL16-k0 (antibody, human IgG1, kappa, also called He Ab S337_10E) heavy 1: not shown heavy 2: not shown light: DIVMTQSPLSLPVTPGEPASISCQASESLVHSNRNTYLHWYLQKPGQSPQLLIYKVSNRFSGVPDRFSGSGSGTDFTLKISRVEAEDVGVYYCSQNTHVPPTFGQGTKVEIERTVAAPSVFIFPPSDEQLKSGTASVVCLLNNFYPREAKVQWKVDNALQSGNSQESVTEQDSKDSTYSLSSTLTLSKADYEKHKVYACEVTHQGLSSPVTKSFNRGEC | 106 relative binding, control = 100 |
